Assay results as given in article PMC10786891, “Massively parallel profiling of RNA-targeting CRISPR-Cas13d”.
Residue numbers refer to the chain shown, from its start. In names and notes the source's numbering stands.

T1: EsCas13d, nuclease-dead (Eubacterium siraeum, UniProt B0MS50, R295A;H300A;R849A;H854A)
T1 sequence: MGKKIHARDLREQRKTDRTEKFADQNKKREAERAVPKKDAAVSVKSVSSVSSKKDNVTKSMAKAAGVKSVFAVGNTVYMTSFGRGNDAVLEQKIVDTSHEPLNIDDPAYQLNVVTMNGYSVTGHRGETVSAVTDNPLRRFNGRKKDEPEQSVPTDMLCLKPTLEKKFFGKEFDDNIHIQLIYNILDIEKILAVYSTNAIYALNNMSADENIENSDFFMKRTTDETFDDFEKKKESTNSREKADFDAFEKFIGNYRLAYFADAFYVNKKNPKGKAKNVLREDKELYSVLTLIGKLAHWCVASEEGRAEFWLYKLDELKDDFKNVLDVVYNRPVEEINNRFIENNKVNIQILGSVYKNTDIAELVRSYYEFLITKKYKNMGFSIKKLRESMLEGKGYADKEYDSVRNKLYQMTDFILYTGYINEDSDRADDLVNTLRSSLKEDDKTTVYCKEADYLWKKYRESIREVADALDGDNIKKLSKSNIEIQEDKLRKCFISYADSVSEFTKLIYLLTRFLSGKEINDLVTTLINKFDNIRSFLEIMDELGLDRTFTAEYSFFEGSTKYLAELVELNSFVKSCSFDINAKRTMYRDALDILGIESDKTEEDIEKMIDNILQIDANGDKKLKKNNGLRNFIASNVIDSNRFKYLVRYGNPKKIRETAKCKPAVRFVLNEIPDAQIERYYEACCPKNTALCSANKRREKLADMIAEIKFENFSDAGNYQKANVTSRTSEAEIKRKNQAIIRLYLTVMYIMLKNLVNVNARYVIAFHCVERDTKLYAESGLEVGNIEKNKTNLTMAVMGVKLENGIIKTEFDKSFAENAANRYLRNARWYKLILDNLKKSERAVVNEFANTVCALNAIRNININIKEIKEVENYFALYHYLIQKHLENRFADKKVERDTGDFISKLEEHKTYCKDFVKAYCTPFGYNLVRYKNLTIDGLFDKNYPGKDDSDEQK

B1: target 1 U11G,A14G (mixed)
RNA 1: CACCCGUGCAAAAAUGCAGGGGUCUAAAACUGAGCGGAUAACCUCUCUAUGG
RNA 2: GGGAAUGGAUCCACAUCUACGAAUUCGUACCAUAGAGGGGGUAUCCGCUCACCGAGAUCGGAAGAGCACACGU
B2: target 1 U3A,C6U (mixed)
RNA 1: B1 RNA 1
RNA 2: B1 RNA 2 with G38A, G41U, C46U, U49A
B3: target 1 insG 3' of 21,insC 3' of 1 (mixed)
RNA 1: B1 RNA 1
RNA 2: GGGAAUGGAUCCACAUCUACGAAUUCGUACCGAUAGAGAGGUUAUCCGCUCACCCGAGAUCGGAAGAGCACACGU
B4: target 1 insC 3' of 8,insU 3' of 7 (mixed)
RNA 1: B1 RNA 1
RNA 2: GGGAAUGGAUCCACAUCUACGAAUUCGUACCAUAGAGAGGUUAUCCUCGCUCACCGAGAUCGGAAGAGCACACGU
B5: target 3 insU 3' of 6,insA 3' of 6 (mixed)
RNA 1: CACCCGUGCAAAAUUGCAGGGGUCUAAAACGACCUGAAUAUUUCAGAUCAAA
RNA 2: GGGAAUGGAUCCACAUCUACGAAUUCGUUUUUGAUCUGAAAUAUUCUAAGGUCUGCAGAUCGGAAGAGCACACGU
B6: target 3 C1G,A9C (mixed)
RNA 1: B5 RNA 1
RNA 2: GGGAAUGGAUCCACAUCUACGAAUUCGUUUUUGAUCUGAAAUCUUCAGGUGUGCAGAUCGGAAGAGCACACGU
B7: target 3 U2C,U22A (mixed)
RNA 1: B5 RNA 1
RNA 2: B6 RNA 2 with U30A, C43A, U50C, G51C
B8: target 3 insG 3' of 2,insA 3' of 2 (mixed)
RNA 1: B5 RNA 1
RNA 2: B5 RNA 2 with U47A, A48G, A49G, G50U, U52A
B9: target 3 insG 3' of 5,insU 3' of 4 (mixed)
RNA 1: B5 RNA 1
RNA 2: B5 RNA 2 with U47A, A48G, A49G, G50U
B10: target 3 C6U,A11G (mixed)
RNA 1: B5 RNA 1
RNA 2: B6 RNA 2 with A41G, C43A, C46U, G51C
B11: target 3 U2A,U8A (mixed)
RNA 1: B5 RNA 1
RNA 2: B6 RNA 2 with C43A, U44A, U50A, G51C
B12: target 3 insG 3' of 5,insC 3' of 3 (mixed)
RNA 1: B5 RNA 1
RNA 2: B5 RNA 2 with U47A, A48G, A49G, G51C
B13: target 3 U2G,U7C (mixed)
RNA 1: B5 RNA 1
RNA 2: B6 RNA 2 with C43A, U45C, U50G, G51C
B14: target 3 G3A,C6G (mixed)
RNA 1: B5 RNA 1
RNA 2: B6 RNA 2 with C43A, C46G, G49A, G51C
B15: target 3 insG 3' of 7,insC 3' of 3 (mixed)
RNA 1: B5 RNA 1
RNA 2: B5 RNA 2 with C46G, U47C, A49G, G51C
B16: target 3 G4C,U7G (mixed)
RNA 1: B5 RNA 1
RNA 2: B6 RNA 2 with C43A, U45G, G48C, G51C
B17: target 3 A11C,G14U (mixed)
RNA 1: B5 RNA 1
RNA 2: B6 RNA 2 with G38U, A41C, C43A, G51C
B18: target 3 A13G,A18G (mixed)
RNA 1: B5 RNA 1
RNA 2: B6 RNA 2 with A34G, A39G, C43A, G51C
B19: target 3 insA 3' of 8 (mixed)
RNA 1: B5 RNA 1
RNA 2: GGGAAUGGAUCCACAUCUACGAAUUCGUUUUUGAUCUGAAAUAUAUCAGGUCUGCAGAUCGGAAGAGCACACGU
B20: target 3 complement block 5-9 (mixed)
RNA 1: B5 RNA 1
RNA 2: B6 RNA 2 with C43U, U44A, U45A, C46G, A47U, G51C
B21: target 3 G3A,A18G (mixed)
RNA 1: B5 RNA 1
RNA 2: B6 RNA 2 with A34G, C43A, G49A, G51C
B22: target 3 U2A,U21A (mixed)
RNA 1: B5 RNA 1
RNA 2: B6 RNA 2 with U31A, C43A, U50A, G51C
B23: target 3 insU 3' of 11 (mixed)
RNA 1: B5 RNA 1
RNA 2: B19 RNA 2 with A43U, U44A, A45U
B24: target 3 insU 3' of 22,insC 3' of 4 (mixed)
RNA 1: B5 RNA 1
RNA 2: GGGAAUGGAUCCACAUCUACGAAUUCGUUUUUUGAUCUGAAAUAUUCAGCGUCUGCAGAUCGGAAGAGCACACGU
B25: target 3 insA 3' of 7,insA 3' of 3 (mixed)
RNA 1: B5 RNA 1
RNA 2: B5 RNA 2 with C46A, U47C, A49G, G51A
B26: target 3 G4A,U7C (mixed)
RNA 1: B5 RNA 1
RNA 2: B6 RNA 2 with C43A, U45C, G48A, G51C
B27: target 3 insU 3' of 22,insA 3' of 22 (mixed)
RNA 1: B5 RNA 1
RNA 2: GGGAAUGGAUCCACAUCUACGAAUUCGUUUUAUUGAUCUGAAAUAUUCAGGUCUGCAGAUCGGAAGAGCACACGU
B28: target 3 insG 3' of 22,insG 3' of 5 (mixed)
RNA 1: B5 RNA 1
RNA 2: B24 RNA 2 with U31G, C50G
B29: target 3 G3U,U7G (mixed)
RNA 1: B5 RNA 1
RNA 2: B6 RNA 2 with C43A, U45G, G49U, G51C
B30: target 3 A11G,A12G (mixed)
RNA 1: B5 RNA 1
RNA 2: B6 RNA 2 with A40G, A41G, C43A, G51C
B31: target 3 insC 3' of 11,insA 3' of 2 (mixed)
RNA 1: B5 RNA 1
RNA 2: B5 RNA 2 with U42C, A43U, U44A, C46U, U47C, A49G, G51U, U52A
B32: target 3 A5C,C6G (mixed)
RNA 1: B5 RNA 1
RNA 2: B6 RNA 2 with C43A, C46G, A47C, G51C
B33: target 3 insG 3' of 8,insU 3' of 5 (mixed)
RNA 1: B5 RNA 1
RNA 2: B5 RNA 2 with U45G, C46U, U47C, A49U

Molecular target: T1, EsCas13d, nuclease-dead
Assay: crRNA (strand 1, pre-loaded); Mg2+; 40 mM Tris-HCl pH 7.5, 150 mM NaCl, 6 mM MgCl2, 1 mM DTT, 0.1% Tween-20, 0.2 mg/ml BSA; 25 C; 10 min per concentration, then washed
Conditions: tags: His6-TwinStrep-SUMO cleaved; N-terminal SNAP kept (SNAP-Surface 488); label: 3' end held by stalled T7 RNA polymerase

Binder	Kd [nM]
B1	22.1 ± 1.3
B2	5.27 ± 0.27
B3	69 ± 12
B4	13.6 ± 1.1
B5	8.69 ± 0.57
B6	54 ± 18
B7	77.5 ± 14
B8	20.3 ± 2.6
B9	20.4 ± 1.8
B10	47 ± 10.5
B11	39 ± 6
B12	76 ± 12.5
B13	28 ± 4.5
B14	46.5 ± 7
B15	46 ± 5
B16	44.1 ± 4.1
B17	56.5 ± 27

Binder	Kd [nM]
B18	~100
B19	50.5 ± 10
B20	90 ± 9.5
B21	55 ± 13
B22	39.5 ± 6
B23	81 ± 31
B24	19.5 ± 4.5
B25	37 ± 4.5
B26	71 ± 12.5
B27	13.4 ± 1.35
B28	41.5 ± 18
B29	33.1 ± 4.2
B30	73 ± 29.5
B31	45.5 ± 11.5
B32	53.5 ± 5.5
B33	31.7 ± 2.8
